Data on one substance can be found in patent US20220074937A1.

Experiment [1] concerns the target CD19 CAR containing FMC63 scFv, on the cell surface (CD19 CAR-T cells, CD19 CAR-293T cells). As to the kind of experiment: flow cytometry, CAR positive cells unmixed; AF488-CD19sIg1-4 against SSC-A; data reproduced from De Oliveira SN, et al., J Transl Med, 2013.
Experiment [2] has the same target. The experiment can be described thus: flow cytometry, CAR positive cells diluted 1:8 in negative cells; AF488-CD19sIg1-4 against SSC-A; data reproduced from De Oliveira SN, et al., J Transl Med, 2013.
For experiment [3] the target is unchanged. As to the kind of experiment: flow cytometry, CAR positive cells diluted 1:16 in negative cells; AF488-CD19sIg1-4 against SSC-A; data reproduced from De Oliveira SN, et al., J Transl Med, 2013.
For experiment [4] the target is unchanged. As to the kind of experiment: flow cytometry, CAR positive cells diluted 1:32 in negative cells; AF488-CD19sIg1-4 against SSC-A; data reproduced from De Oliveira SN, et al., J Transl Med, 2013.
Experiment [5] shares this target. The experiment can be described thus: flow cytometry, CAR positive cells diluted 1:64 in negative cells; AF488-CD19sIg1-4 against SSC-A; data reproduced from De Oliveira SN, et al., J Transl Med, 2013.
For experiment [6] the target is unchanged. The experiment can be described thus: flow cytometry, CAR positive cells diluted 1:128 in negative cells; AF488-CD19sIg1-4 against SSC-A; data reproduced from De Oliveira SN, et al., J Transl Med, 2013.

Chain of CD19 CAR containing FMC63 scFv, on the cell surface (CD19 CAR-T cells, CD19 CAR-293T cells) (chain, as listed by the source): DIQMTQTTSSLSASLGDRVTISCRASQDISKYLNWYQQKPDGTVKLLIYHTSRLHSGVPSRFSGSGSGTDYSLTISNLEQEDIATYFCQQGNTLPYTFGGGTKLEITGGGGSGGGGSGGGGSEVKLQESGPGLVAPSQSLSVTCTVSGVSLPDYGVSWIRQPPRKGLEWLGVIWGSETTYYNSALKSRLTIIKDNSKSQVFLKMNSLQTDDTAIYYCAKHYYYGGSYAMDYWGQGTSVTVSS

In turn, CD19/Fc (Fc fusion) returned a % of cells in the AF488-CD19sIg1-4 positive gate, CAR positive cell (unmixed) in experiment [1] of 65.9%. This substance gave a % of cells in the AF488-CD19sIg1-4 positive gate, 1:8 in experiment [2] of 9.24%. The same substance yielded a % of cells in the AF488-CD19sIg1-4 positive gate, 1:16 in experiment [3] of 4.28%. In experiment [4], this substance came in with a % of cells in the AF488-CD19sIg1-4 positive gate, 1:32 of 2.96%. Besides, in experiment [5], the % of cells in the AF488-CD19sIg1-4 positive gate, 1:64 was determined as 1.34%. Further, in experiment [6], the % of cells in the AF488-CD19sIg1-4 positive gate, 1:128 turned out to be 0.646%.
